Data set [1] addresses UV-damaged βL-crystallin (bovine (endogenous in steer lens)).
Data set [2] concerns the molecule itself. The experiment in a line: dynamic light scattering; ZetaSizer S nano; protein 1 mg/mL in PBS (40 mM sodium phosphate, pH 7.0, 100 mM NaCl, 1 mM EDTA, 3 mM NaN3); native protein without urea, or after renaturation from urea.
In a further data set the target is T1, αB-crystallin (bovine (endogenous in steer lens), UniProt P02510 1-175).
T1 construct: αB-crystallin (19.8 kDa), identified by mass on SDS-PAGE; source: purified from lenses of 6-month-old steers as a part of α-crystallin and HMWA
T1 sequence (looked up): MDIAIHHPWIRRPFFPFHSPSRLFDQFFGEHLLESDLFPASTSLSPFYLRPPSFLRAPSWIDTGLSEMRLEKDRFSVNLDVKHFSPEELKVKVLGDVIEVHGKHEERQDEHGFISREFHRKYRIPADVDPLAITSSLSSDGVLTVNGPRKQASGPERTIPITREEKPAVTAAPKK
In words: SEC; Sephacryl S300HR, 2.5 × 90 cm, 1.6 mL/min, calibrated with standard proteins; polypeptides of the preparations and fractions by SDS-PAGE. Particulars: both partners purified. (SEC sorts molecules by how far they enter the pores of the column.)

As for “refolded HMWA (from UniProt P02470 1-173; P02510 1-175) (complex)”, the abscissa point of intersection (reciprocal of AC0) of the relative aggregation rate of UV-damaged βL-crystallin against the chaperone/target protein ratio; points with accelerated aggregation left out (mol/mol (chaperone/target protein)) in data set [1] amounted to 0.38.

With “αH-crystallin, high molecular weight aggregate (native) (from UniProt P02470 1-173; P02510 1-175) (complex)”, in data set [1], the abscissa point of intersection (reciprocal of AC0) of the relative aggregation rate of UV-damaged βL-crystallin against the chaperone/target protein ratio (mol/mol (chaperone/target protein)) amounted to 0.46 and the initial adsorption capacity AC0 from the aggregation kinetics of UV-damaged βL-crystallin (37 °C, 360 nm): target protein/chaperone mol/mol ratio, counted on monomers (mol/mol (target protein/chaperone)) was found to be 2.

B1: α-crystallin (native, from the lens cortex) (complex, bovine (endogenous in steer lens))
chain 1: MDIAIQHPWFKRTLGPFYPSRLFDQFFGEGLFEYDLLPFLSSTISPYYRQSLFRTVLDSGISEVRSDRDKFVIFLDVKHFSPEDLTVKVQEDFVEIHGKHNERQDDHGYISREFHRRYRLPSNVDQSALSCSLSADGMLTFSGPKIPSGVDAGHSERAIPVSREEKPSSAPSS
chain 2: MDIAIHHPWIRRPFFPFHSPSRLFDQFFGEHLLESDLFPASTSLSPFYLRPPSFLRAPSWIDTGLSEMRLEKDRFSVNLDVKHFSPEELKVKVLGDVIEVHGKHEERQDEHGFISREFHRKYRIPADVDPLAITSSLSSDGVLTVNGPRKQASGPERTIPITREEKPAVTAAPKK
notes: αA-crystallin, from steer lens; identified by mass on SDS-PAGE (20 kDa); αB-crystallin, from steer lens; identified by mass on SDS-PAGE (19.8 kDa); Polydisperse oligomer; by SDS-PAGE αA-crystallin 30%, αB-crystallin 60%, truncated α-crystallin 10% (a mixture of αA and αB fragments); also called authentic α-crystallin; native α-crystallin; source: purified from lenses of 6-month-old steers (gel …)
Turning to B1, the binding result in data set [2] is on record as “binds”.

B2: renatured α-crystallin (complex, bovine (endogenous in steer lens))
chain 1: MDIAIQHPWFKRTLGPFYPSRLFDQFFGEGLFEYDLLPFLSSTISPYYRQSLFRTVLDSGISEVRSDRDKFVIFLDVKHFSPEDLTVKVQEDFVEIHGKHNERQDDHGYISREFHRRYRLPSNVDQSALSCSLSADGMLTFSGPKIPSGVDAGHSERAIPVSREEKPSSAPSS
chain 2: MDIAIHHPWIRRPFFPFHSPSRLFDQFFGEHLLESDLFPASTSLSPFYLRPPSFLRAPSWIDTGLSEMRLEKDRFSVNLDVKHFSPEELKVKVLGDVIEVHGKHEERQDEHGFISREFHRKYRIPADVDPLAITSSLSSDGVLTVNGPRKQASGPERTIPITREEKPAVTAAPKK
notes: αA-crystallin, from steer lens; as in m1; αB-crystallin, from steer lens; Same polypeptides as m1, reassembled from monomers after urea
For B2, the binding result in data set [2] is listed as “binds”.

B3: αA-crystallin (natural protein, bovine (endogenous in steer lens), UniProt P02470 1-173, looked up)
chain: MDIAIQHPWFKRTLGPFYPSRLFDQFFGEGLFEYDLLPFLSSTISPYYRQSLFRTVLDSGISEVRSDRDKFVIFLDVKHFSPEDLTVKVQEDFVEIHGKHNERQDDHGYISREFHRRYRLPSNVDQSALSCSLSADGMLTFSGPKIPSGVDAGHSERAIPVSREEKPSSAPSS
notes: αA-crystallin (20 kDa), identified by mass on SDS-PAGE; source: purified from lenses of 6-month-old steers as a part of α-crystallin and HMWA
Take B3: the binding result with αB-crystallin is on record as “binds”.
